The source of these data is patent US7811569.

The assay has as its target native MSP-3 antigen of Plasmodium falciparum clone 3D7 schizonts and merozoites (Plasmodium falciparum). Put plainly: flow cytometry on ethanol-fixed permeabilized schizonts, FITC anti-human Fab. On the technique in general: A flow cytometer gives signals particle by particle.

In turn, control Fab against HibCP came in with a percent of events under the bar M1 of 2%. The figure for “control antibody against HibCP in the IgG1 format” is 4%.
